Results on two substances are retold here after patent US5981488.

For this assay, the target named is rat GLP-1 receptor (rat) (UniProt P32301).

As to Thr-8 GLP-1(7-37)OH (peptide), the Percent receptor affinities (cAMP production by the membrane preparation, fluorescent tracer-immuno assay) was 2.8%.

Turning to Met-8 GLP-1(7-36)NH2 (peptide), the Percent receptor affinities (cAMP production by the membrane preparation, fluorescent tracer-immuno assay) was 16.6%.
